The values that follow come from patent US20110212108A1, “NEUREGULIN/ERBB SIGNALING AND INTEGRIN” (THE REGENTS OF THE UNIVERSITY OF CALIFORNIA, priority 2008, published 2011).

Changes are numbered by the printed parent chain. Entries after “also recorded” stand apart in the source; their conditions may differ. Read-outs that look alike come from different tables or passages of the source.

For one assay, the target named is T1, integrin αvβ3 (Homo sapiens, UniProt P05106+P06756).
T1 construct: Soluble recombinant integrin αvβ3 (5 μg/ml) was added to the wells; made in house
Description: ELISA-type binding of soluble recombinant integrin αvβ3 to immobilized NRG1 fragments. To be noted: soluble αvβ3, 1 mM Mn2+, room temperature. On the procedure: FIG. 1. […] The isolated EGF-like domain of Wt NRG1 was immobilized to wells of 96-well titer plates. The concentrations of the coating solution are shown. Soluble recombinant integrin αvβ3 (5 μg/ml) was added to the wells in the presence of 1 mM Mn^2+ and incubated for 2 h at room temperature. After washing the wells bound αvβ3 was determined by using anti-β3 antibody and HRP-conjugated anti-mouse IgG. The data is shown as means+/−SEM of triplicate experiments. FIG. 7. […] Wt GST-NRG1 (175-222) and the 2KE mutant of GST-NRG1 (175-222) were immobilized to wells of 96-well titer plates. The concentrations of the coating solution are shown. Soluble recombinant integrin αvβ3 (5 μg/ml) was added to the wells in the presence of 1 mM Mn^2+ and incubated for 2 h at room temperature. After washing, the wells bound αvβ3 was determined by using anti-β3 antibody and HRP-conjugated anti-mouse IgG. The data are shown as means+/−SD of triplicate experiments. […] Direct αvβ3-NRG (175-222) interaction: It has been well established that the EGF-like domain of the NRGs is sufficient to specifically activate ErbB receptors and to induce cellular responses in culture. To generate GST-NRG1 EGF-like domain fusion protein, the cDNA fragment of the EGF-like domain of NRG1 was amplified by PCR and subcloned into PGEX-2T vector to generate GST-NRG1 EGF-like domain fusion protein (designated GST-NRG1 (175-222)) in E. coli BL21. The fusion protein was purified in glutathione-affinity chromatography. The affinity resin was extensively washed with 1% Triton X-114 to remove endotoxin before eluting the protein. It was tested, in the present invention, whether soluble recombinant integrin αvβ3 binds to GST-NRG1 (175-222) that is immobilized to plastic wells (ELISA-type assay). […] Cell adhesion and soluble integrin binding assays were performed as described previously (Mori, et al., 2008). NRG1α (175-241) was immobilized to wells of 96-well microtiter plate overnight at 4° C. in 0.1 M carbonate buffer, pH 2 9.4. Remaining protein binding sites were blocked by incubating with 200 μl of 0.1% BSA in PBS for 60 min at room temperature. Wells were then incubated with soluble integrin αvβ3 in 50 μl in Hepes-Tyrode's buffer supplemented with 1 mM Mn2+ at room temperature for 60 min. After rinsing the wells with the same buffer, bound integrins were determined by horseradish peroxidase (HRP)-conjugated anti-His tag mouse IgG and substrate 3,3′,5,5′-tetramethylbenzidine of HRP.

Assay [1] addresses T2, K562 cells that express human αvβ3 (αvβ3-K562) (Homo sapiens, UniProt P05106+P06756).
T2 construct: expressed in transfected cells; host or cells: K562
Description: Cell adhesion assay, αvβ3-K562 cells. The format is cell-based. The procedure:
FIG. 5. […] Adhesion assays was performed using αvβ3-K562 (left) or mock transfected cells (right) as described herein. The data is shown as means+/−SEM of triplicate experiments.
CHO or K562 cells expressing different recombinant integrins were previously known and available (Zhang et al. 1998; Tarui et al. 2006). Labeling of proteins with FITC or […] was performed according to manufacturers' instructions. Flow cytometry was performed as described above. Also, adhesion assays as described above were used to confirm the findings using flow cytometry.
(§1) Cell adhesion and soluble integrin binding assays were performed as described previously (Mori, et al., 2008). NRG1α (175-241) was immobilized to wells of 96-well microtiter plate overnight at 4° C. in 0.1 M carbonate buffer, pH 2 9.4. Remaining protein binding sites were blocked by incubating with 200 μl of 0.1% BSA in PBS for 60 min at room temperature. Wells were then incubated with soluble integrin αvβ3 in 50 μl in Hepes-Tyrode's buffer supplemented with 1 mM Mn2+ at room temperature for 60 min. After rinsing the wells with the same buffer, bound integrins were determined by horseradish peroxidase (HRP)-conjugated anti-His tag mouse IgG and substrate 3,3′,5,5′-tetramethylbenzidine of HRP.

Assay [2] concerns the target T3, CHO cells expressing β1-3-1 (β1-3-1-CHO cells) (Homo sapiens, UniProt P05556, DEL209-212/INS207YDMKT).
T3 construct: expressed in transfected cells; host or cells: CHO
Description: Cell adhesion assay, β1-3-1-CHO cells. It counts as cell-based. The procedure:
FIG. 3. Adhesion of CHO cells that express human β1 (β1-CHO) or β1-3-1 (β1-3-1-CHO) to wt NRG1 (175-222). The β1-3-1 mutation changes the specificity of β1 integrins to that of β3 integrins. Cell adhesion was performed as described herein. β1-3-1-CHO cells adhered to wt NRG1 (175-222) and this binding was blocked by anti-human β1 antibody AIIB2, but not by purified mouse IgG (mIgG). BSA: BSA as a control was coated instead of NRG1 (175-222).
FIG. 6. […] Adhesion assays was performed using β1-3-1-CHO cells as described herein. Data are shown as means+/−SEM of triplicate experiments.
The β1-3-1 mutation: To determine if NRG1 (175-222) binds to αvβ3 like other known αvβ3 ligands (e.g., vitronectin and fibrinogen), a mutant of β1 having a ligand specificity of β3 (Takagi et al. 1997) was used. […] It was shown that when a disulfide-linked five-residue sequence of β1 I-like domain (residues 177-183) of αvβ1 is switched with a corresponding sequence in β3 integrin (designated the β1-3-1 mutant), ligand-binding specificity of the mutated integrin αvβ1-3-1 is altered to that of αvβ3 (Takagi et al. 1997). […] The adhesion of β1-3-1-CHO cells to NRG1 (175-222) was blocked anti-β1 antibody AIIB2 (FIG. 3). […] These findings indicate that NRG1 (175-222) binds to the ligand-binding site of αvβ3, and that the specificity loop plays a role in NRG1 binding to αvβ3.
as §1

T1 sequence (P06756 31-992 limits assumed): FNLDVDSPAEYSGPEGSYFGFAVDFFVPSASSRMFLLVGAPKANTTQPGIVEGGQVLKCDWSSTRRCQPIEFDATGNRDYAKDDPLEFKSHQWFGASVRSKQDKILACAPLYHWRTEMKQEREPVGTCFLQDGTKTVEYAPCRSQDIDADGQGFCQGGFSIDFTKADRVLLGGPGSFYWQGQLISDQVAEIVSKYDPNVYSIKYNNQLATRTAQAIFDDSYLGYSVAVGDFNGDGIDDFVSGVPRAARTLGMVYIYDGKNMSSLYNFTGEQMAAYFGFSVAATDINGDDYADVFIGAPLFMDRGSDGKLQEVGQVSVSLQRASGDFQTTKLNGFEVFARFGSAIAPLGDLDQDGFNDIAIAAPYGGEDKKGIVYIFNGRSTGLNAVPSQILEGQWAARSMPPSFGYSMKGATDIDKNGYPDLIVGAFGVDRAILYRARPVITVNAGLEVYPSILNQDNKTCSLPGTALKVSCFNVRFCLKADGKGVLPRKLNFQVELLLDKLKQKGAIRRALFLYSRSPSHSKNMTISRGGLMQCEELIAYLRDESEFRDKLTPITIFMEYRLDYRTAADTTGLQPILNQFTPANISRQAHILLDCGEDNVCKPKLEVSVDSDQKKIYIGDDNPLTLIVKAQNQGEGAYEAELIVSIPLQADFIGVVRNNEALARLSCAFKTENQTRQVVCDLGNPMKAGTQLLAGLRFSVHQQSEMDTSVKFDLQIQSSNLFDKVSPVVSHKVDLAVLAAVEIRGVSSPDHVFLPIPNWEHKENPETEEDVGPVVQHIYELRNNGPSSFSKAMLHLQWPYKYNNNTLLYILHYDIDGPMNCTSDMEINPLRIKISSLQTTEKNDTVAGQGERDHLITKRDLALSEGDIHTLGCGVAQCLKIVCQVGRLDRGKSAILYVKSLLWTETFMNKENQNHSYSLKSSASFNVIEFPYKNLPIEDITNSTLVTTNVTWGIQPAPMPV
T1 sequence (P05106 27-718 limits assumed): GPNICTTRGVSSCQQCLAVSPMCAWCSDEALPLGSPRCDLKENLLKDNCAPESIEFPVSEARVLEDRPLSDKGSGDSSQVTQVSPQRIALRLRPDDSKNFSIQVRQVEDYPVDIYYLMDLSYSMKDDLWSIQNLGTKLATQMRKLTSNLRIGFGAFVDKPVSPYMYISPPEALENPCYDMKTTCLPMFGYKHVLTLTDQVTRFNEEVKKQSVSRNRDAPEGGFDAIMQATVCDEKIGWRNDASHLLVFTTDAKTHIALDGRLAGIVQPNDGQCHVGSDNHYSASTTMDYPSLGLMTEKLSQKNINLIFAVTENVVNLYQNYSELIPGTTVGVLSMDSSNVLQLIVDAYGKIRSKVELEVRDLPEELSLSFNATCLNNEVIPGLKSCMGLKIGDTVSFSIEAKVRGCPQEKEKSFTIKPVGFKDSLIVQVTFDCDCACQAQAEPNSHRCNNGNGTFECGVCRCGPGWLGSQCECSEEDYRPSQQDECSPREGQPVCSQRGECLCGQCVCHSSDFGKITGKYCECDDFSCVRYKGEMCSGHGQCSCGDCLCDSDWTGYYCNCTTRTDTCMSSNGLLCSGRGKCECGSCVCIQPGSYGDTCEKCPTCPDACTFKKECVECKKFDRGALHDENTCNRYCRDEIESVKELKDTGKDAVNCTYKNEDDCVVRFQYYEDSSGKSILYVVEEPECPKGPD
T3 sequence (P05556 with tags, fused parts or gaps INS207YDMKT/DEL209-212): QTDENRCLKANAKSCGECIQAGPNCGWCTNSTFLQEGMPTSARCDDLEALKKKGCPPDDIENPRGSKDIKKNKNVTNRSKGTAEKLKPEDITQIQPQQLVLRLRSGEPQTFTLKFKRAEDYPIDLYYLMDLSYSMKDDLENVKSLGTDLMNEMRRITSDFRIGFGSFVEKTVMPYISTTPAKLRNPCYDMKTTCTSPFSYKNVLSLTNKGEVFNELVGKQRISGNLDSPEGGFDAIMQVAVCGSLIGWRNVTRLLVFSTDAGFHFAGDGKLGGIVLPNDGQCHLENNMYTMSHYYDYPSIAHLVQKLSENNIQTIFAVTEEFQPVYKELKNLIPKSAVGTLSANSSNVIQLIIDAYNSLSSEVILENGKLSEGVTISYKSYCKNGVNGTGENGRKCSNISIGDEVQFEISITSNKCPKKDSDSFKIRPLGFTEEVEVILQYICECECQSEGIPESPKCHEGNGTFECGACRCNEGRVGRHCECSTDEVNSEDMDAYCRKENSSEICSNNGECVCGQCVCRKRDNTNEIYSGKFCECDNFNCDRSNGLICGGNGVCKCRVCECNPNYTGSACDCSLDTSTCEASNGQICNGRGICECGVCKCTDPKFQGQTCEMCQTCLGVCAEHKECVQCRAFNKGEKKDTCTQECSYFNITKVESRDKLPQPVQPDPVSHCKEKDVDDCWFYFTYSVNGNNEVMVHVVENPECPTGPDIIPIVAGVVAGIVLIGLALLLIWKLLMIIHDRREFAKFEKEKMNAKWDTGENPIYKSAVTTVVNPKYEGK
T2 sequence (P06756 31-1048): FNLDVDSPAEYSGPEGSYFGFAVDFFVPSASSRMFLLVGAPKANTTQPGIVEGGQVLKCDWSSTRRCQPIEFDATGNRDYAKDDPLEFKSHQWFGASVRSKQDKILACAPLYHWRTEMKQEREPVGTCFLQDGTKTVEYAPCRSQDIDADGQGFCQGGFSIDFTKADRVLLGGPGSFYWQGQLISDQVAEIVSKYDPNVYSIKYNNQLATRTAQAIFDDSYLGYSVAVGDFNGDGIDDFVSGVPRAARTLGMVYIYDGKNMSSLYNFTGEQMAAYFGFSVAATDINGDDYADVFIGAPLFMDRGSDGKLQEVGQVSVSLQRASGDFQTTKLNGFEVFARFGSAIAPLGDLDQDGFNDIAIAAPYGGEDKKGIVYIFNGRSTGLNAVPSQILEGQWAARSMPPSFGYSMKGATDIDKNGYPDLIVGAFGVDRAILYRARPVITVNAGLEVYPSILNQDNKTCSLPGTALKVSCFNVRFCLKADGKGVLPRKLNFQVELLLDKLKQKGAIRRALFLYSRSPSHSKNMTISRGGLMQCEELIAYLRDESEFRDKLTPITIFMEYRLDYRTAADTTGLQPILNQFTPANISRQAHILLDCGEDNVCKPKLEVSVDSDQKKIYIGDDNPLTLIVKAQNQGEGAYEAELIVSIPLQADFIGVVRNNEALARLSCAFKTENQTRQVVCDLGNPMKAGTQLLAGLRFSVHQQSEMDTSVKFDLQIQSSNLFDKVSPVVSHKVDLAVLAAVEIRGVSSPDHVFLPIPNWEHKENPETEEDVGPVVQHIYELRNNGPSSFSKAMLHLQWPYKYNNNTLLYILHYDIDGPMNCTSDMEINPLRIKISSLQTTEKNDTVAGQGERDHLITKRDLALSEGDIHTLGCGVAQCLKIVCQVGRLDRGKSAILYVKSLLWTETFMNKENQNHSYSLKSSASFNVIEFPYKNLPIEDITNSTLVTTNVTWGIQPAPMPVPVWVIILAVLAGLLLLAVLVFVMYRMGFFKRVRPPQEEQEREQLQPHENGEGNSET
T2 sequence (P05106 27-788): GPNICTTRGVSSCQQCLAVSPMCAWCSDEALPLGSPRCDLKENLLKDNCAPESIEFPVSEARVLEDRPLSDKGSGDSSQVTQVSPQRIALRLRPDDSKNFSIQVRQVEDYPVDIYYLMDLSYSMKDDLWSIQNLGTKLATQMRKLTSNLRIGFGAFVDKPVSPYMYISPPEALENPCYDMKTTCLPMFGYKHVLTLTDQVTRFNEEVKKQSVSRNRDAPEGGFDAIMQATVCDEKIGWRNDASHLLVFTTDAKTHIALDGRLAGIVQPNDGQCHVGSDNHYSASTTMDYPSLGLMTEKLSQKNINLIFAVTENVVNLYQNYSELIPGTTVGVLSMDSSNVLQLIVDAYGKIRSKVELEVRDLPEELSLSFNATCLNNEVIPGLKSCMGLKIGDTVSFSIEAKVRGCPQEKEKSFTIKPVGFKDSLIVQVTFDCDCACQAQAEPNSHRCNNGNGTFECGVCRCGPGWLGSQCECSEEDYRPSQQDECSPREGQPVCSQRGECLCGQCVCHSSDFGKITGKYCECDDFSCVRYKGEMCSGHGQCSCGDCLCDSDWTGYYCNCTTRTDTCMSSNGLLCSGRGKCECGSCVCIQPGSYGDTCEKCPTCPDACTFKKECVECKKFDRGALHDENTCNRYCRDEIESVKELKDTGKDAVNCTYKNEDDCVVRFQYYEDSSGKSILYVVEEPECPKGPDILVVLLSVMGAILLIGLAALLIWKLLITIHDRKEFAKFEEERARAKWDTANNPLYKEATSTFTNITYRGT

As to “3KE (175-222): NRG1 (175-222) with Lys181/Lys185/Lys187 mutated to Glu; GTSHLVECAEEEETFCVNGGECFMVKDLSNPSRYLCKCQPGFTGARCT (SEQ ID NO:11) (integrin-binding site within human neuregulin, 3KE mutant, short version)”, the “Binding of soluble recombinant integrin αvβ3 to the immobilized protein” value (“Binding” for short) in the assay with integrin αvβ3 is “bound to the 3KE (175-222) mutant (isolated EGF-like domain) in a dose-dependent manner; also recorded: much lower affinity to αvβ3”. The “Adhesion of αvβ3-K562 cells to the immobilized protein” value (“Adhesion of αvβ3-K562 cells” below) in assay [1] is given as “did not bind; also recorded: defective in binding to αvβ3-K562 cells”. Besides, the “Adhesion of β1-3-1-CHO cells to the immobilized protein” value (“Adhesion of β1-3-1-CHO cells” for short) in assay [2] is reported as “defective in binding to β1-3-1 integrins”.
With “wt NRG1 (175-222): wild type human neuregulin 1 fragment, EGF-like domain, residues 175-222 of SEQ ID NO:4 (SEQ ID NO:3) (GTSHLVKCAEKEKTFCVNGGECFMVKDLSNPSRYLCKCQPGFTGARCT; integrin-binding site within human neuregulin 1 EGF-like region and portion of alpha domain, residues 175-222 of human neuregulin 1 alpha) [reference compound]”, the “Binding” value with integrin αvβ3 (listed as NRG (175-222)) is listed as “bound to recombinant soluble αvβ3”. Also, the “Adhesion of αvβ3-K562 cells” value in assay [1] is “bound to wt NRG1 (175-222)”; in assay [1] (listed as NRG1 (175-222)), “adhered in a dose-dependent manner”. The “Adhesion of β1-3-1-CHO cells” value in assay [2] is recorded as “bound to NRG1 (175-222)”.

B1: WT NRG1α (175-241): wild type human neuregulin 1 fragment, residues 175-241 of SEQ ID NO:4 (SEQ ID NO:5), entire EGF-like motif and α domain (protein)
chain: GTSHLVKCAEKEKTFCVNGGECFMVKDLSNPSRYLCKCQPGFTGARCTENVPMKVQNQEKAEELYQK
modifications: integrin-binding site within human neuregulin, residues 175-241of human neuregulin 1alpha, long version
Consider B1, for which, in the assay with integrin αvβ3, the “Binding” value was “bound to GST-NRG1α (175-241) (isolated EGF-like domain) in a dose-dependent manner”. The “Adhesion of αvβ3-K562 cells” value in assay [1] (listed as NRG1α (175-241)) is recorded as “adhered in a dose-dependent manner”; in assay [1] (listed as wt NRG1α (175-241)), “bound to wt NRG1α (175-241)”. The “Adhesion of β1-3-1-CHO cells” value in assay [2] (listed as NRG1α (175-241)) is on record as “bound to NRG1α (175-241)”; in assay [2] (listed as wt NRG1α (175-241)), “bound to wt NRG1α (175-241)”.

B2: 3KE (175-241): NRG1α (175-241) with Lys181/Lys185/Lys187 mutated to Glu, SEQ ID NO:6 (3KE, long version) (protein)
chain: B1 chain with K7E, K11E, K13E
modifications: integrin-binding site within human neuregulin, residues 175-241of human neuregulin 1alpha, long version, 3KE mutant
Turning to B2, in assay [1], the “Adhesion of αvβ3-K562 cells” value is on record as “little or no adhesion”. In addition, the “Adhesion of β1-3-1-CHO cells” value in assay [2] is “little or no adhesion”.
